According to patent US20150203579A1 (Regeneron, published 2015):
Where a chain is given by its changes, count along the chain named. Numbers in names are those of the source.

T1: recombinant cynomolgus monkey PD-1 expressed with a C-terminal myc-myc-hexahistidine tag (cynomolgus monkey (Macaca fascicularis))
T1 construct: monomeric; also called MfPD-1-MMH
T1 chain: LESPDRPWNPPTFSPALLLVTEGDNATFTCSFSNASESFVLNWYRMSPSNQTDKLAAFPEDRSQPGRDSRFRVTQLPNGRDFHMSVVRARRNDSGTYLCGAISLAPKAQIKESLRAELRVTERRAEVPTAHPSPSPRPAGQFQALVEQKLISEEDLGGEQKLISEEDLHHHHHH

B1: H4xH9034P (antibody, V domains shown)
VH: EVQLVESGGGVVRPGGSLRLSCTASGFTFDDYGMSWVRQAPGKGLEWISGIGWTGGRSSYADSVRGRFTISRDNAKNSLYLQMNSLGAEDTALYYCARDRQWLVQWYFDYWGQGTLVTVSS
VL: not shown
notes: Human IgG4 Fc with 2 or more amino acid changes as disclosed in US20100331527 (H4xH); also called H4xH9034P2
B2: H4H9019P (antibody, human IgG4, V domains shown)
VH: EVQLVESGGGVVRPGGSLRLSCAASGFTFDDYGMSWVRQVPGKGLEWVSGISWNDGKTVYAESVKGRFIISRDNAKNSLYLEMNSLRAEDTALYYCARDWQYLIERYFDYWGQGTLVTVSS
VL: not shown
notes: Fully human; H4H prefix (human IgG4 Fc)
B3: H4xH9035P (antibody, V domains shown)
VH: B2 VH with G10R, V40L, S49A, Y80H, E105D, Y110F
VL: not shown
notes: Human IgG4 Fc with 2 or more amino acid changes (H4xH); also called H4xH9035P2
B4: H4xH9045P (antibody, V domains shown)
VH: EVQLVESGGGLVQPGRSLRLSCAASGFTFDDYDMHWVRQAPGKGLEWVSGSGWNRGSLGYADSVKGRFTISRDNAKKSLYLQMNSVRVEDTALYYCAKGFVVVSAAYFDYWGQGTLVTVSS
VL: not shown
notes: Human IgG4 Fc with 2 or more amino acid changes (H4xH); also called H4xH9045P2
B5: H4xH9037P (antibody, V domains shown)
VH: EVQLVESGGGLVQPGGSLRLSCAASGFTFDDYAMHWVRQAPGKGLEWVSGIGWSSGSIGYADSVKGRFTISRDNAKNSLYLQMDSLRPEDSALYYCAKAYTFMITLYFDYWGQGTLVTVSS
VL: not shown
notes: Human IgG4 Fc with 2 or more amino acid changes (H4xH); also called H4xH9037P2

biological target: T2, human PD-1 dimer (human PD-1-mFc or human PD-1-hFc) (human, UniProt Q15116 25-170); assay: SPR, mAb captured, 37C;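 also: Real-time Biacore biosensor, PD-1 dimer flowed over anti-PD-1 antibody surface, rate constants fitted to a 1:1 model, KD derived as kd/ka and t½ as ln2/(60·kd)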
T2 construct: also called hPD-1-mFc; hPD1-hFc
T2 sequence (Q15116 25-170 C93S): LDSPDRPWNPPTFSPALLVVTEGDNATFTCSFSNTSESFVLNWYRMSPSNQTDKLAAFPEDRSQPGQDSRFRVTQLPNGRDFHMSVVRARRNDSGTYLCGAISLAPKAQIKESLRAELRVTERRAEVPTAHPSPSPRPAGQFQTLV

| Binder | Kd [nM] | koff [s⁻¹] | kon [M⁻¹ s⁻¹] | t½ [min] |
| --- | --- | --- | --- | --- |
| B1 | 2.09 | 0.00063 | 302000 | 18 |
| B2 | 2.71 |  |  | 59 |
| B3 | 1.75 | 0.000554 | 316000 | 21 |
| B4 | 5.13 | 0.0011 | 214000 | 11 |
| B5 | 3.5 | 0.000921 | 263000 | 13 |

biological target: T2, human PD-1 dimer (human PD-1-mFc or …); assay: SPR, mAb captured, 25C

| Binder | Kd [nM] | koff [s⁻¹] | kon [M⁻¹ s⁻¹] | t½ [min] |
| --- | --- | --- | --- | --- |
| B1 | 0.701 | 0.000151 | 215000 | 77 |
| B2 | 1.97 |  |  | 134 |
| B3 | 0.513 | 0.000103 | 201000 | 112 |
| B4 | 1.75 | 0.00016 | 91300 | 72 |
| B5 | 0.862 | 0.000129 | 150000 | 89 |

Biological target: T1, recombinant cynomolgus monkey PD-1 …
Assay: SPR, mAb captured, 37C;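 also: rate constants from fitting sensorgrams to a 1:1 binding model, with Kd computed as koff/kon and half-life as ln2/(60·koff), PD-1 flowing over anti-PD-1 antibody surfaces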

| Binder | Kd [nM] | koff [s⁻¹] | kon [M⁻¹ s⁻¹] | t½ [min] |
| --- | --- | --- | --- | --- |
| B1 | 87.3 | 0.0247 | 283000 | 0.5 |
| B2 | 356 |  |  | 1.5 |
| B3 | 14 | 0.00429 | 306000 | 2.7 |
| B4 | 7540 | 0.105 | 14000 | 0.1 |
| B5 | 39.7 | 0.0088 | 222000 | 1.3 |

biological target: T3, recombinant human PD-1 expressed with a C-terminal myc-myc-hexahistidine tag (human); assay: SPR, mAb captured, 37C;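 also: rate constants from fitting sensorgrams to a 1:1 binding model, KD derived as kd divided by ka and half-life as ln2/(60·kd)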
T3 construct: monomeric; also called hPD-1-MMH; human PD-1-MMH

| Binder | Kd [nM] | koff [s⁻¹] | kon [M⁻¹ s⁻¹] | t½ [min] |
| --- | --- | --- | --- | --- |
| B1 | 40.2 | 0.0112 | 279000 | 1 |
| B2 | 453 |  |  | 2.1 |
| B3 | 14.3 | 0.00426 | 298000 | 2.7 |
| B4 | 662 | 0.0532 | 80400 | 0.2 |
| B5 | 29.5 | 0.00668 | 226000 | 1.7 |

Biological target: T1, recombinant cynomolgus monkey PD-1 …
Assay: SPR, mAb captured, 25C

| Binder | Kd [nM] | koff [s⁻¹] | kon [M⁻¹ s⁻¹] | t½ [min] |
| --- | --- | --- | --- | --- |
| B1 | 28 | 0.00269 | 96100 | 4.3 |
| B2 | 42.9 |  |  |  |
| B3 | 4.64 | 0.000434 | 93600 | 27 |
| B4 | 113 | 0.00705 | 62500 | 1.6 |
| B5 | 13.1 | 0.000915 | 69900 | 13 |
